Laboratory results from the DeepSol protein solubility set.

Assay: soluble on expression in E. coli; label from the status in PepcDB or PDB records

| Sequence | soluble on expression in E. coli |
| --- | --- |
| MSLNWKQLISAKRFGMEEFHEERQENRSEFQRDYDRLIFSAPFRRLQNKTQVFPLPGSIFVHNRLTHSLEVSCVGRSLGNDVAKAILERQPELESSFLPEIGSIVSAACLAHDLGNPPFGHSGERAISTFFSEGKGQRLQEKQPDGEQLSPMEWEDLTHFEGNANAFRILTHQFEGRRRGGFVLTYSTLASIVKYPFSSSLAGKKSKFGFFVSEEESYRKIATELGLIQLSEQPLKYARHPLVYLVEAADDICYQMMDIEDAHKLKIITTDETKELLMAFFSEDRQSRLRSTFQIVNDINEQIAYLRSSVIGLLVRECTRVFLEHEQEILAGTFEGALIKHIAEGPAAAYNHCAEISLKRIYRSQDVLDIELAGFRIISTLLELMVDAVTLPGKEKAYSELLTNRVSDQYNIKSPVLYERIQAVLDYISGMTDVFALDLYRKINGNSLPAEGHHHHHH | soluble |
| MSLNIVTLISWDFKRNNESFQRAIINGYDYWSRILDDHGVEKYVILLTCNRVELYYRGDPFDVQEKGYNIISDDMAINHLFHVAAGLDSMSIGENEVLKQVKQAYEKSSSMGKSDKFLSLIFQRAISVGKLVRSKTGIGKGKVSIPSIVYDIVRKNGGNKILLVGNGMLASEIAPYFSYPQYKVTVAGRNIDHVRAFAEKYEYEYVLINDIDSLIKNNDVIITATSSKTPIVEERSLMPGKLFIDLGNPPNIERGNNVITLDEIYEISKKNEMLREEKINQAEILIENEMKATMNKIKDLMIDDIFSQFYRFASVVQTMEIQKFRKMHPEVNENDLEALAHSIINKILNVPVTTLKAVSRSQGNSDFNRLFESFSSNFNDIVSAALQSYEGLRDTQSLRDRTRQLLQKSEGHHHHHH | soluble |
| IIYKETKPEEYNLRNPVVTQDYTVSMSGGNDRGTYYASLGYNDSPGAPITTEYTRYNFTFNGSYKIADWLKTTSNATFSRANYVWLNNDWGTEADYFGRVMSSPPTVRFEDEDGNSTLGPSPGDGNQTYVARSYDQDNERTKLTLMQSVEANLFKGLVLRASASWYYFHTVEENMRKDYETVPGQWDRTRSTSASYSRQFSQTYNAVLDYTTTFATSHNLNVMLGSEFYDQYNNGFSASGFGASTDDFKKLGLTDAGEGKRSIDSSHSRYRILSYFGRLNYDYEGKYLFSGVFRYDGYSSLLGKNRWGFFPGVSGGWVFTKEDFVKESLPFLYYGKLRASYGLNGNASGIGPYTLQGSYNSNKYHGNNGFLIGALPNPSLRWEKTASFDIGLNVGLLDGRLNLDIDYYNRLTSDKYADLTLPSTTGFSSIRNNNGKLRNRGIELQLSGKIMETRDFTWDASLNITYNKNKIIALPYNKEPRNRQEGQQVYTGRKIANPETGVFEDEKVWVGGFQEGMEYGVLVGYQAEGIYQSMDDIPGDLVVKSGNAQGKYQYGPDAWKRLSAAEQAKGVEIKPGDMKWKDVNGDGMIDQYDQVVIGNTTPRWFGGFNTTMSWKGLSLYARFDFALDYWVYDNQTPWLLGCMQGTYNTTKDVFNTWNESNPNAKYPRYVYGDQLGTANYNRTSTLFASKGNYLGVRELSLSYTLPQELSKKLYMQKLQFSITGQNLGYLTSARTVSPEISSGYPLPRTVILGVNVTF | not soluble |
| MRYPIMNNFFKIHDNLLRNLSPSLRRGLMDEIDWNDRLIGIKGARGMGKTTFLLDYARENFGIGNRKCLYINLNQLYFTTESLVNFAGEFVKQGGEVLLLDQVFKYPNWSIELRQCMELYPDLRIVFTGSTVMRLKEENPELNGLVTSYVLNGFSFREFLNLKTGLSLQPYSFDEIVSNHEQIAPRILEQVNPLDWFQDYLHHGYYPIFLEDKNYSESLLKTLNMTLEVDVLFIRQIEQRFLHKLRKLLYLLGQRAPGSLNISSIAKEVDTSRTTITNYLKYLSEARLIKELHREEETGAKKPAMIYLDNTNVGYVIQPEPLNYIDVLKTFFLNQVKSRNEVCLGSRSQIAFCVNRQYQFCIDEKMSRRYRPDRYYAIQNMRSGTRNMIPLWLFGFLY | not soluble |
| MSLIRVSSAVQRHAQKLIVLFSLLFGASLLMSDNGFATDIKNTNASSPVNSESTKPTKAGEVKNVVRFAKTGSFDNDTVVRLARQLAKKPYVALKDPLPESLANISYDEYRDIRFKPDSAVWKADGLPYQMQLFHRGFFFQDLIEIALVEGNQATHLSYDPNMFTAGEVLQQNLPTEDIGYSGLRVHYPLNSPSYFDELFVFQGASYFRALGKGNAYGLSARGLAIKTADPAGEEFPIFRAFWVEKPNYDTNLIVVHALLDSPSVSGAYRFSIRPGENTRMDVEAVLFPRVELSKVGLAPATSMFMHSPNGREKTDDFRPSVHDSDGLLMINGRGERLWRPLANPSTLQVSAFMDNSPQGFGLMQRERDYANYQDLEAHYEKRPSLWVEPVGNWGPGAVVLTEIPTQSEIHDNIVAFWKPAQPLAAGSEYRFSYHLNWGAQPEANPQAITVSRTASGRADIAKPTPKRLFVIDYQVQGAKPAQMPEPKVRSNAGVISNVVLRDNPANNGYRLSFEFDPGEVTLAELRAELTLQEARPVETWLYRWTLEGGSHHHHHH | soluble |
| MAVQYKSTTTEHKFKHLSVYERGQIAALLKEGKSQRYIANKLGRSPSTISREIKRGTTMQMRTDLSTYKVYFPETGQAVYEKNRMNCGAKRKLAQVEDFLKFAEDKILREKWSPDAVVGLCRRDPKWQNSTIVCTKTLYNYIDLGLIKVRNIDLNLKLRLKS | soluble |
| MRWVKAGELPMEAAYGATVSLPDRLIFIGGSNSSDRFSSVLSFSFDCMKDSGLICETLPPLPHAVDNMSATLLGDTLYVLGGNRNGIPSSSMFSLCLDNYSAGWTEVPFPGRPRVQPVCSSLLGKLYVFGGFTSGGDASVSTDGLCYHPESGQWQVVKAPLTTKGEPLTLTGGASVSYGDVLLICAGGVNRDIFEDAISARYQMVRESEYLLQPIEWYRFNDQLLAYNVRSGEWIRIGVPSPMLARAGSSLVVFGDILFYIGGELKPGVLEHHHHHH | not soluble |
| VMPLILLPAVDVVEGRAVRLVQGKAGSQTEYGSAVDAALGWQRDGAEWIHLVDLDAAFGRGSNHELLAEVVGKLDVQVELSGGIRDDESLAAALATGCARVNVGTAALENPQWCARVIGEHGDQVAVGLDVQIIDGEHRLRGRGWETDGGDLWDVLERLDSEGCSRFVVTDITKDGTLGGPNLDLLAGVADRTDAPVIASGGVSSLDDLRAIATLTHRGVEGAIVGKALYARRFTLPQALAAVRD | soluble |
| MPFRSNNPITRDELLSRFFPQFHPVTTFNSGLSGGSFLIEHQGQRFVVRQPHDPDAPQSAFLRQYRALSQLPASIAPKPHLYLRDWMVVDYLPGAVKTYLPDTNELAGLLYYLHQQPRFGWRITLLPLLELYWQQSDPARRTVGWLRMLKRLRKAREPRPLRLSPLHMDVHAGNLVHSASGLKLIDWEYAGDGDIALELAAVWVENTEQHRQLVNDYATRAKIYPAQLWRQVRRWFPWLLMLKGGWFEYRWRQTGDQQFIRLADDTWRQLLIKQ | not soluble |
| MAHHHHHHMDKAKTLEVLRGMKFMQRKEEAKRRAAFEVAQRDEIERQLLHPGTGSSGASGGVSDGGSSALRDRGGGGPVRATVLYDDSFPTHAYSLSRRSFTETLGGGGAIPVAAGLGDTDAHLEGSAVESRVSLKDVGEAQASADAALDDSDVASDEEVADLWGGEDAEGELNDPTAASDRRNQGVKRTRDRRGDRNQHACSDGRFIVKPSLRAPKLPRRLQETVAEQKRQRAEEEGDMNM | soluble |
| MAKTPGLNLSISERASNRLAEIYRNSKENLRISVESGGCHGFQYNLTLEPATKPDIKNDVKDKEFSDDLDDDDSKDIIYVLPEDKGRVIIDSKSLNILNNTTLTYTNELIGSSFKIINGSLKSSCGCGSSFDIEN | not soluble |
| MDFHIRKATNSDAEAIQHVATTSWHHTYQDLIPSDVQDDFLKRFYNVETLHNRISATPFAVLEQADKVIGFANFIELEKGKSELAAFYLLPEVTQRGLGTELLEVGMTLFHVPLPMFVNVEKGNETAIHFYKAKGFVQVEEFTEDFYGYPLETIRFNLNHHAFEEE | not soluble |
| MGGSHHHHHHGMASALERYAAALEEVADGARQQERHYQLLSALQSLVKELPSSFQQRLSYTTLSDLALALLDGTVFEIVQGLLEIQHLTEKSLYNQRLRLQNEHRVLRQALRQKHQEAQQACRPHNLPVVQAAQQRELEAVEHRIREEQRAMDQKIILELDRKVADQQSTLEKAGVAGFYVTTNPQELMLQMNLLELIRKLQQRGCRAGNAALGLGGPWQSPAAQCDQKGSPVPP | not soluble |
